± gives the standard deviation of the averaged measurements.
Legend:
Saccharomyces cerevisiae [1] = test: protein stability index of tFT-peptide fusion (C-terminal peptide) (PSI (0-1 scale)); higher = more stable (slower turnover); details: genetic background: wild type; temperature: 30 C
Saccharomyces cerevisiae [2] = test: as above
Method: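 MPS profiling in S. cerevisiae of the tFT-X12 degron library: putative degron peptides plus stable controls, 12 aa, fused to the C-terminus of a sfGFP-mCherry timer. Cells are FACS-sorted into 8 mCherry/sfGFP bins and deep-sequenced. PSI runs from 0 (unstable) to 1 (stable). Backgrounds are wild type, das1Δ and doa10Δ at 30 °C, and wild type, das1Δ, cdc34-1 and cdc53-1 at 37 °C; 2-3 technical replicates each.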

[3] = genetic background: cdc34-1, temperature: 37 C
[4] = genetic background: cdc53-1, temperature: 37 C
[5] = genetic background: das1 deletion, temperature: 30 C
[6] = genetic background: das1 deletion, temperature: 37 C
[7] = genetic background: doa10 deletion, temperature: 30 C
[8] = genetic background: wild type, temperature: 30 C
[9] = genetic background: wild type, temperature: 37 C
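Note: PSI is a weighted mean of sequencing reads over stability bins, variants kept only with over 10 reads, mCherry proximal and sfGFP distal, peptide attached via GGGS linker.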

| Sequence | protein stability index (Saccharomyces cerevisiae [1]) | protein stability index (Saccharomyces cerevisiae [2]; [3]) | protein stability index (Saccharomyces cerevisiae [2]; [4]) | protein stability index (Saccharomyces cerevisiae [2]; [5]) | protein stability index (Saccharomyces cerevisiae [2]; [6]) | protein stability index (Saccharomyces cerevisiae [2]; [7]) | protein stability index (Saccharomyces cerevisiae [2]; [8]) | protein stability index (Saccharomyces cerevisiae [2]; [9]) |
| --- | --- | --- | --- | --- | --- | --- | --- | --- |
| DVCGVRYVLFVL | 0.502 ± 0.013 | 0.57 ± 0.014 | 0.647 ± 0.018 | 0.49 ± 0.025 | 0.655 ± 0.024 | 0.416 ± 0.0086 | 0.428 ± 0.026 | 0.597 ± 0.026 |
| DVRLVLCEMIKG | 0.513 ± 0.036 | 0.587 ± 0.048 | 0.6123 ± 0.0027 | 0.414 ± 0.028 | 0.624 ± 0.0012 | 0.394 ± 0.021 | 0.426 ± 0.021 | 0.601 ± 0.0076 |
| FLPPVHRCFSIF | – | 0.671 ± 0.037 | 0.742 ± 0.013 | 0.653 ± 0.022 | 0.745 ± 0.021 | 0.172 ± 0.014 | 0.193 ± 0.032 | 0.3915 ± 0.0028 |
| GFLFVLCAWGFF | – | 0.178 ± 0.017 | 0.321 ± 0.039 | 0.227 ± 0.022 | 0.386 ± 0.019 | 0.21 ± 0.0069 | 0.236 ± 0.0048 | 0.318 ± 0.0066 |
| GGGWGGRWGRLC | – | 0.639 ± 0.047 | 0.754 ± 0.0091 | 0.6543 ± 0.0029 | 0.75462 ± 8e-05 | 0.193 ± 0.021 | 0.218 ± 0.035 | 0.479 ± 0.0076 |
| GPPVPLSPPLSP | – | 0.701 ± 0.042 | 0.695 ± 0.045 | 0.35 ± 0.024 | 0.5534 ± 0.0029 | 0.33 ± 0.0094 | 0.341 ± 0.014 | 0.532 ± 0.039 |
| KQSGLQIKRRKL | – | 0.711 ± 0.043 | 0.75156 ± 0.00069 | 0.617 ± 0.019 | 0.7734 ± 0.0051 | 0.639 ± 0.07 | 0.7 ± 0.056 | 0.763 ± 0.061 |
| LVCSLLVPSSFF | – | 0.679 ± 0.0081 | 0.7 ± 0.074 | 0.634 ± 0.016 | 0.722 ± 0.0063 | 0.667 ± 0.035 | 0.645 ± 0.011 | 0.7039 ± 0.0056 |
| PPPPPPPAPASP | – | – | – | 0.665 ± 0.13 | 0.68 ± 0.048 | 0.553 ± 0.17 | 0.635 ± 0.089 | 0.629 ± 0.032 |
| QRAVGLANFTIK | – | 0.672 ± 0.065 | 0.7512 ± 0.0062 | 0.647 ± 0.043 | 0.7328 ± 0.0028 | 0.646 ± 0.048 | 0.669 ± 0.032 | 0.709 ± 0.018 |
| RPPPYSPRLFHN | – | 0.469 ± 0.0049 | 0.706 ± 0.031 | 0.67 ± 0.031 | 0.75 ± 0.01 | 0.0941 ± 0.065 | 0.129 ± 0.023 | 0.179 ± 0.067 |
| RSRNSEYILVYN | – | 0.655 ± 0.018 | 0.672 ± 0.039 | 0.397 ± 0.045 | 0.6343 ± 0.0031 | 0.318 ± 0.012 | 0.391 ± 0.014 | 0.66 ± 0.025 |
| TGGGGRVSLGGG | – | 0.337 ± 0.053 | 0.427 ± 0.032 | 0.384 ± 0.021 | 0.44 ± 0.022 | 0.374 ± 0.013 | 0.372 ± 0.0084 | 0.416 ± 0.044 |
| VFYWGGVLCGWG | – | 0.337 ± 0.035 | 0.502 ± 0.074 | 0.309 ± 0.03 | 0.514 ± 0.014 | 0.297 ± 0.019 | 0.326 ± 0.036 | 0.439 ± 0.027 |
| WLISLLVQPVFL | – | 0.295 ± 0.0052 | 0.3167 ± 0.0022 | 0.276 ± 0.029 | 0.4053 ± 0.0021 | 0.233 ± 0.0031 | 0.273 ± 0.02 | 0.37 ± 0.0047 |
| YPHAGSTSLLLF | 0.685 ± 0.0073 | – | – | – | – | – | – | – |
| YPLRVSRCWSPP | 0.773 ± 0.1 | – | – | – | – | – | – | – |
| YPPGSPVPPGLP | 0.671 ± 0.0076 | – | – | – | – | – | – | – |
| YPRGFPTLSYSS | 0.727 ± 0.023 | – | – | – | – | – | – | – |
| YPRPIPSISRTS | 0.731 ± 0.053 | – | – | – | – | – | – | – |
| YQAVRGRVFVAL | 0.638 ± 0.044 | – | – | – | – | – | – | – |
| YQFGFLPAFPAC | 0.7 ± 0.013 | – | – | – | – | – | – | – |
| YRARRRPPPSPP | 0.682 ± 0.045 | – | – | – | – | – | – | – |
| YREPKISEMLQE | 0.621 ± 0.017 | – | – | – | – | – | – | – |

| Sequence | protein stability index (Saccharomyces cerevisiae [1]) | protein stability index (Saccharomyces cerevisiae [2]; [3]) | protein stability index (Saccharomyces cerevisiae [2]; [4]) | protein stability index (Saccharomyces cerevisiae [2]; [5]) | protein stability index (Saccharomyces cerevisiae [2]; [6]) | protein stability index (Saccharomyces cerevisiae [2]; [7]) | protein stability index (Saccharomyces cerevisiae [2]; [8]) | protein stability index (Saccharomyces cerevisiae [2]; [9]) |
| --- | --- | --- | --- | --- | --- | --- | --- | --- |
| YRIWFSSFLHPT | 0.741 ± 0.18 | – | – | – | – | – | – | – |
| YRPPFPAALFSE | 0.6962 ± 0.0034 | – | – | – | – | – | – | – |
| YRRASGGTVEDM | 0.721 ± 0.024 | – | – | – | – | – | – | – |
| YRSPPPLRGLIP | 0.711 ± 0.088 | – | – | – | – | – | – | – |
| YRTCLHRGRQML | 0.68188 ± 0.00019 | – | – | – | – | – | – | – |
| YRTPCPPLSPHS | 0.719 ± 0.062 | – | – | – | – | – | – | – |
| YRVFTANYEYEQ | 0.724 ± 0.023 | – | – | – | – | – | – | – |
| YSGFVVGASDTL | 0.601 ± 0.18 | – | – | – | – | – | – | – |
| YSHSRVNPDAWG | 0.669 ± 0.11 | – | – | – | – | – | – | – |
| YSRGVSGSDKFP | 0.747 ± 0.16 | – | – | – | – | – | – | – |
| YSVSAALPREFR | 0.773 ± 0.062 | – | – | – | – | – | – | – |
| YTLPVHPAFVFP | 0.683 ± 0.071 | – | – | – | – | – | – | – |
| YTPDFPTIVSFI | 0.694 ± 0.14 | – | – | – | – | – | – | – |
| YTSTSTILRPFP | 0.676 ± 0.078 | – | – | – | – | – | – | – |
| YVAGECVFVCWE | 0.657 ± 0.04 | – | – | – | – | – | – | – |
| YVARERWEGCRI | 0.7 ± 0.0077 | – | – | – | – | – | – | – |
| YVGAENRGVQGW | 0.723 ± 0.016 | – | – | – | – | – | – | – |
| YVKHTVKVSGHK | 0.665 ± 0.0098 | – | – | – | – | – | – | – |
| YVRCSVKCHILT | 0.609 ± 0.029 | – | – | – | – | – | – | – |
| YWFVFGEFSGGR | 0.716 ± 0.042 | – | – | – | – | – | – | – |
| YWPPIRSILPQY | 0.67 ± 0.033 | – | – | – | – | – | – | – |
| YYAGFTAFGSLA | 0.709 ± 0.079 | – | – | – | – | – | – | – |
| YYVGLHSFSILQ | 0.729 ± 0.076 | – | – | – | – | – | – | – |

Source: the supplement of paper PMC10724198
